Consider seven molecules from US20170174769A1 (Regeneron, published 2017).

Positions count from the first letter of the chain named. In names and notes the source's numbering stands.

For assay [1], the target named is T1, extracellular domain of human FGFR1c expressed with C-terminal V5 and hexahistidine tags (human, UniProt P11362 22-376).
T1 construct: also called hFGFR1c-V5-6His
T1 sequence: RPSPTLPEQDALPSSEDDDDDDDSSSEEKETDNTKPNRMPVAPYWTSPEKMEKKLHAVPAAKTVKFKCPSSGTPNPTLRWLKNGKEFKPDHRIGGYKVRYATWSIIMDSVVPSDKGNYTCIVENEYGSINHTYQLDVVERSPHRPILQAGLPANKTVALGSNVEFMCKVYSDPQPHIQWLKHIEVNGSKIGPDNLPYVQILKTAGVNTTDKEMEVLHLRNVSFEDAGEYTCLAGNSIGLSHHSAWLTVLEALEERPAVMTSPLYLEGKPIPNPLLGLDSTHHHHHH
In words: SPR, mAb captured, 25 C. The protocol:
(§1) Equilibrium dissociation constants (KD values) for human KLB or human FGFR1c binding to purified anti-KLB/FGFR1c monoclonal antibodies were determined using a real-time surface plasmon resonance biosensor using a Biacore T-200 or 4000 instrument. The Biacore sensor surface was derivatized by amine coupling with either a polyclonal rabbit anti-mouse antibody (GE, # BR-1008-38) or with a monoclonal mouse anti-human Fc antibody (GE, # BR-1008-39) to capture anti-KLB/FGFR1c monoclonal antibodies expressed with either a mouse Fc or a human Fc, respectively. All Biacore binding studies were performed in a buffer composed of 0.01M HEPES pH 7.4, 0.15M NaCl, 3mM EDTA, 0.05% v/v Surfactant P20 (HBST running buffer). […] Association of hKLB-HA-6His or hFGFR1c-V5-6His to the captured monoclonal antibody was monitored for 3.5 to 4 minutes and the dissociation of hKLB-HA-6His or hFGFR1c-V5-6His in HBST running buffer was monitored for 8-12 minutes. All the binding kinetics experiments were performed at 25° C. or 37° C. Kinetic association (kₐ) and dissociation (kd) rate constants were determined by fitting the real-time sensorgrams to a 1:1 binding model using Scrubber 2.0c curve fitting software. Binding dissociation equilibrium constants (KD) and dissociative half-lives (t½) were calculated from the kinetic rate constants as: […]

The target in assay [2] is T2, extracellular domain of human KLB expressed with C-terminal HA and hexahistidine tags (human, UniProt Q86Z14 1-996).
T2 construct: also called hKLB-HA-6His; hKLB-HA-6his
T2 sequence: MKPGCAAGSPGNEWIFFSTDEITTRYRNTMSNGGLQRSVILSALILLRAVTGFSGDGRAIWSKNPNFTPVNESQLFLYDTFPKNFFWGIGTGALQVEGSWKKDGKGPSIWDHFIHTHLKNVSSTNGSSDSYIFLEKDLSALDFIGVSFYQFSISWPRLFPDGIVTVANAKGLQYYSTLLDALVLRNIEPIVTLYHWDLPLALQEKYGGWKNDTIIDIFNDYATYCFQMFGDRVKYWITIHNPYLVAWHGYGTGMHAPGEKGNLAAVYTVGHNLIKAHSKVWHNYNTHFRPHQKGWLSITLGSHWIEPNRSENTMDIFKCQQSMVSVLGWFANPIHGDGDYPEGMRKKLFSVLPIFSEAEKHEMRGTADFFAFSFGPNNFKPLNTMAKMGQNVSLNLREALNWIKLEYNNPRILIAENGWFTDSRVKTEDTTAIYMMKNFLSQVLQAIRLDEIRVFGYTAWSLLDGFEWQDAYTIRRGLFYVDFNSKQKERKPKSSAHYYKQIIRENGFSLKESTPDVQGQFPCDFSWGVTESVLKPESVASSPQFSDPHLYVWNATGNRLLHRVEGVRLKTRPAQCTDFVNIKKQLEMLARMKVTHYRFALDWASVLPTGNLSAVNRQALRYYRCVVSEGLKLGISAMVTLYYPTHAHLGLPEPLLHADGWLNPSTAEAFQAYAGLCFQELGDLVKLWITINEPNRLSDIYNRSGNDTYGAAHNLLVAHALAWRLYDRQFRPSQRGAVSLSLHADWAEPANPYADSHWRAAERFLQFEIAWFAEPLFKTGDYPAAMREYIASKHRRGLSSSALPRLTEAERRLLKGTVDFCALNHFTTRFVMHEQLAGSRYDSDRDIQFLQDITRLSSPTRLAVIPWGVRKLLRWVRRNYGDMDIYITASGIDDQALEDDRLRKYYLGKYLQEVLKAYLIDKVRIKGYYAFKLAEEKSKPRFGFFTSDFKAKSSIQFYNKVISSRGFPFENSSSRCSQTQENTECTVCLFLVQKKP
In words: SPR, mAb captured, 25 C. The procedure: as §1
Background: Surface plasmon resonance follows binding to a sensor surface in real time, without labels.

Broadly, the Kd is the equilibrium constant for the complex coming apart. A low value points to tighter binding. In general, koff refers to the rate constant with which the complex falls apart. Lower therefore signals slow dissociation. Broadly, the kon is a measure of how fast the partners come together. A low value points to slow association.

B1: H4H8837P (antibody, V domains shown)
VH: QVQLVESGGGVVQPGRSLRLSCAASGFTFNSYAMHWVRQAPGMGLEWVAVISSDGSNKYYADSVRGRFTVSRDNSKNTLYLQMNSLRSEDTAVYYCAKDGRGYSSFSHFGMDVWGQGTTVTVSS
VL: DIQMTQSPSTLSASVGDRVTITCRASQSIGSWLAWYQQKPGKAPKLLIYKTSSLESGVPSRFSGSGSGTEFTLTISSLQPDDFASYYCQQYNSYSFGQGTKVEIK
notes: human IgG4 Fc (H4H prefix)
For the molecule B1, in assay [1], the “180 nM hFGFR1c-V5-6His Bind (RU)” value came to 0.2 RU and the binding result was “no binding (tested: 180 nM)”. In addition, in assay [2], the “20 nM hKLB-HA-6His Bind (RU)” value was 63 RU, the Kd came out at 367 pM, the koff stood at 0.000128 s⁻¹ and the kon turned out to be 350000 M⁻¹ s⁻¹. Moreover, the t1/2 in assay [2] came to 1.5 h.

B2: H4H8852P (antibody, V domains shown)
VH: QVQLQESGPGLVKPSETLSLTCTVSGGSISSYYWSWIRQPPGKGLEWIGYIYSSGIIKYNPSLKSRVTISADTSKNQFSLKLSSVTAADTAVYYCARHGIFGVMEYFQRWGQGTLVTVSS
VL: DIQMTQSPSSLSASIGDRVTITCQASQDIGNFLNWYQQKPGKAPTLLIYDASNMETGVPSRFSGSGSGTYFTFTISSLQPEDVATYYCQQYDNLPLTFGGGTKVEIK
notes: human IgG4 Fc (H4H prefix)
With B2, in assay [1], the “180 nM hFGFR1c-V5-6His Bind (RU)” value worked out at 0 RU and the binding result is “no binding (tested: 180 nM)”. Besides, the “20 nM hKLB-HA-6His Bind (RU)” value in assay [2] was -0.2 RU.

B3: H4H8856P (antibody, V domains shown)
VH: B2 VH with G49A, S53Y, I57T
VL: B2 VL with G30S, A51V, S67Y, Y70D, F73L, Q79K, V83I, L94I
notes: human IgG4 Fc (H4H prefix)
B3: in assay [1], the “180 nM hFGFR1c-V5-6His Bind (RU)” value is 0.1 RU and the binding result is given as “no binding (tested: 180 nM)”. Also, the “20 nM hKLB-HA-6His Bind (RU)” value in assay [2] is -0.4 RU.

B4: H2aM8832N (antibody, V domains shown)
VH: QVQLVESGGGVVQPGRSLRLSCAASGFTFSRYGMHWVRQAPGKGLEWVAVIWYDGTNKYYEDSLKGRFTISRDNSKNTLYLQMNSLRAEDSAVYYCARDQGKYIDYWGQGTLVTVSS
VL: AIQMTQSPSSLSASVGDRVTITCRTSQDIRNDLGWYQQKPGKVPNLLIYAASTLQSGVPSRFSGSGSGTDFTLTISSLQPEDFATYYCLQDYNYPFTFGPGTKVDIK
notes: mouse IgG2 Fc (H2aM prefix)
With B4, in assay [1], the “180 nM hFGFR1c-V5-6His Bind (RU)” value came to 5.8 RU. Moreover, the “20 nM hKLB-HA-6His Bind (RU)” value in assay [2] was -0.2 RU.

B5: H2aM8093N (antibody, V domains shown)
VH: QVQLVQSGAEVKRPGSSVKVSCKASGDTFSTYAISWVRQAPGQGLEWMGGIIPVFGTTNYAQKFQDRVTITTDESTRTAYMELSSLRSEDTAVYYCAGIAGPDYWGQGTLVTVSS
VL: DIQMTQSPSSLSASVGDRVTITCRASQGIRNYLAWFQQKPGKAPKSLIYLATSLQSGVPSKFSGSGSGTDFTLTISSLQPEDFATYYCQQYYSYPWTFGQGTKVEIK
notes: mouse IgG2 Fc (H2aM prefix)
Turning to B5, the “180 nM hFGFR1c-V5-6His Bind (RU)” value in assay [1] was -1.2 RU. In addition, in assay [2], the “20 nM hKLB-HA-6His Bind (RU)” value was found to be 147 RU, the Kd came to 218 pM, the koff was found to be 9.8e-05 s⁻¹ and the kon came out at 449000 M⁻¹ s⁻¹. In assay [2], this molecule had a t1/2 of 1.96 h.

B6: H1M8115N (antibody, V domains shown)
VH: QVQLVQSGAEVKKPGSSVKVSCKASGGTFSTYEISWVRQAPGQGLEWMGGIIPVFGTTHYAQKFQDSVTITTDESTGTAFMELSSLKSEDTAVYYCARGGAGGDNWGQGTLVTVSS
VL: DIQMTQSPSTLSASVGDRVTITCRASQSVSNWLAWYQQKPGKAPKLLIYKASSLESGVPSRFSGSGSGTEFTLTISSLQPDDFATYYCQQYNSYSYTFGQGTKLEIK
notes: H1M Fc prefix (mouse Fc)
Take B6: the “180 nM hFGFR1c-V5-6His Bind (RU)” value in assay [1] is -1.8 RU. Besides, in assay [2], the “20 nM hKLB-HA-6His Bind (RU)” value worked out at 77.6 RU, the Kd turned out to be 110 pM, the koff came to 5.02e-05 s⁻¹ and the kon was 455000 M⁻¹ s⁻¹. Besides, the t1/2 in assay [2] turned out to be 3.83 h.

B7: H2aM8109N (antibody, V domains shown)
VH: QVQVVESGGGVVQPGRSLRLSCAASGFTFSSYGLHWVRQAPGKGLEWVAVIWHDGSHKYYADSVKGRFTISRDNSKNTLYLQMNSLRAEDTAVYYCARDGIPVAEDYYFYGMDVWGQGTTVTVSS
VL: DIQMTQSPSSLSASVGDRVTITCRASQGIRNDLGWYQQKPGKAPKRLIYAASSLQSGVPSRFSGSGSGTEFTLTISSLQPEDFAIYYCLQHNSLTFGGGTKVEIK
notes: mouse IgG2 Fc (H2aM prefix)
Take B7: the “180 nM hFGFR1c-V5-6His Bind (RU)” value in assay [1] was -0.7 RU. In addition, in assay [2], the “20 nM hKLB-HA-6His Bind (RU)” value is 21.3 RU, binding was characterised by a dissociation constant (Kd) of 4440 pM, the koff came to 0.000449 s⁻¹ and the kon stood at 101000 M⁻¹ s⁻¹. In assay [2], the t1/2 was 0.428 h.
